Laboratory results as given in EP4752227A2.

These substances were tested against CD3 (human) (UniProt P07766) (assay: cell-based or functional assay).
Sequence of UniProt P07766 (P07766 23-207): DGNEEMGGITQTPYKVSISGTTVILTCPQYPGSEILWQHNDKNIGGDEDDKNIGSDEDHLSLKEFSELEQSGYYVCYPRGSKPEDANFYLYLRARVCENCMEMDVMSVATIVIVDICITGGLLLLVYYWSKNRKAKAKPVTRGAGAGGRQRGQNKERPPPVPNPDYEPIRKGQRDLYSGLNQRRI

| Substance | Transduction efficiencies as measured by CD3+GFP+ cells at Day 6 [%] |
| --- | --- |
| soluble anti-CD3 antibody clone UCHT1 | 0.52 |
| soluble anti-CD3 antibody clone OKT3 | 3.27 |
| soluble anti-CD3 antibody clone HIT3A | 4.31 |
